From the nanobody polyreactivity screen of Harvey et al. (2022)

Assay: yeast display, Sf9 membrane polyspecificity reagent, FACS + sequencing; frameworks hold sequencing errors
Procedure, shortened: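 A nanobody's polyreactivity label depends on the gate it was sorted from. Yeast display cells were stained with 10% biotinylated, detergent-solubilized Sf9 membrane reagent for 1 hour at 4 °C, enriched on streptavidin microbeads and sorted by FACS. The low and high (top ~1%) gates were set on anti-HA fluorescence for expression and streptavidin fluorescence for reagent binding.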
With “QVQLVESGGGLVQAGGSLRLSCAASGSIFLYNAMGWYRQAPGKERELVAGITFIGGSTYYADSVKGRFTISRDNAKNTVYLQMNSLKPEDTAVYYCNADVAPGIFYGYDSWGQGTQVTVSS” the “polyreactivity (PSR sort gate)” value was “low polyreactivity”.
For “QVQLVESGGGLVQAGGSLRLSCAASGSILTFYAMGWYRQAPGKERELVAAITWRGGSTYYAYSVKGRFTISRDNAKNTVYLQMNSLKPEDTAVYYCAAEQVGYYLNWRDYWGQGTQVTVSS”, the “polyreactivity (PSR sort gate)” value was “high polyreactivity”.
With “QVQLVESGGGLVQAGGSLRLSCAASGSTFAGNGMGWYRQAPGKERELVAGIDVTGGSTYYADSVKGRFTSSRDNAKNTVYLQMNSLKPEDTAVYYCNARYVYHSSFAGFDYWGQGTQVTVSS” the “polyreactivity (PSR sort gate)” value was “low polyreactivity”.
With “QVQLVESGGGLVQAGGSLRLSCAASGRTFAYYAMGWYRQAPGKERELVAAIDSSGGSTYYADSVKARFTISRDNAKNTVYLQMNSLKPEDTADYYCAASYPYDRYDQGGYGYWGQGTQVTVSS” the “polyreactivity (PSR sort gate)” value was “low polyreactivity”.
With “QDQLVQSGGGLVQAGGSLRKSCAASGSTFNPNTMGWNKQAPGKERELVASITWRGGRTYYADSVKGRFTISRDNAKNTVSLQMNSLKPEDTAVFYCASVTFSYDGYDYWGQGTQVTVTS” the “polyreactivity (PSR sort gate)” value was “low polyreactivity”.
With “QVQLVESGGGLVHAGGSLRLSCAASGFTLRKYVMGWYRQAPGKERELVAAITSYASSTYFADSVKGRFTISRDNSKNTVYLQMNSLKPEDSAVYYCAARRYGEPYGYWGQGTQVTVSS” the “polyreactivity (PSR sort gate)” value was “high polyreactivity”.
For “QVQLVESGGGLVQAGGSLRLSCAASGSTFEYNAMGWYRQAPGKERELVASSTNYADSVKGRFTISRDNAKNTVYLQMNSLKPEDTAVYYCAREQGVNRNHDYWGQGTQGTVSS”, the “polyreactivity (PSR sort gate)” value was “low polyreactivity”.
With “QVQLVESGGGLVQAGGSLRLSCAASGYTFYGYAMGWYRQAPGKERELVAAISGSGGSTYYADSVKGRFTISRDNAKNTVYLQMNSLKPEDTAFYYCNKARYAIYRGDGYDYWGQGTQVTVSS” the “polyreactivity (PSR sort gate)” value was “high polyreactivity”.
With “QVQLVESGGGLVQAGRSLRISCAASGYTFIYYPMGWYRPAPGKERELVATISIDGSTNYADSVKGRFTISRDNAKNTVYLQMNILKPEDTAVYYCNLERYEDYDYWGQGTQVTVSS” the “polyreactivity (PSR sort gate)” value was “high polyreactivity”.
In the case of “QVQLVESGGGLVQAGGSLRLSCAASGRTFRGNAMGWYRQAPGKERELVAAISWRGTSTYYADSVKGRFTISRDNAKNTVYLQMNSLKPEDTAVYYCNTQRQLGERFYDRSRQGDYWGQGTQVTVSS”, the “polyreactivity (PSR sort gate)” value is reported as “high polyreactivity”.
With “QVQLVESGGGLVQAGGSLRLSCAASGITFRVYVMGGYRQAPGKERELVAAITSGTSTYYADSVKGRFTISRDNAKNTVYLQMNSLKPEDTAVYYCAADWDLFYAVVGFDFDYWGQGTQVTVSS” the “polyreactivity (PSR sort gate)” value was “low polyreactivity”.
With “QVQLVESGGGLVQAGGSLRLSCAASGFTFYTYAMGWYRQAPGKERELVATISGSGGDTNYADSVKGRFTISRDNEKNTVYLQMDSLKPEDTAVYYCAAEPDATTYSDPYDYWGQGTQVTVSS” the “polyreactivity (PSR sort gate)” value was “low polyreactivity”.
In the case of “QVQLVESGGGLVQAGGSLRLSCAASGSSFVYNVMGWYRQAPGKERELVAAIRWRGGSTYADSVKGRFTISRDNAKNTVYLQMNSLKPEDTAVYYCAAGIPRYWYAGHYDYWGQGSQVTVSS”, the “polyreactivity (PSR sort gate)” value is reported as “low polyreactivity”.
For “QVQLVESGGGLVQAGGSLRLSCAASGIIFRYYAMGWYRPAPGKERELVAAISSGGSTNYADSVKGRFTISRDNAKNTVYLQMNSLKPEDTAVYYCAADYTYNGLEYDYWGQGTQVTVSS”, the “polyreactivity (PSR sort gate)” value was “high polyreactivity”.
With “QVQLVESGGGIVQAGGSLRLSCAASGRIFSEYAMGWYRQAPGKERELVARITSSGGSTSYADSVKGRFTISRDNAKNTVYLQMNSLNPVDTAVYYCAGDGVWRRFYYLHYYWGQGTQVTVSS” the “polyreactivity (PSR sort gate)” value was “high polyreactivity”.
For “QVQLVESGGGLVQAGGSLRLSCAASGSTFYSNAMGWYRQAPGKERELVASISWSSGSTYYADSVKGRFTISRDNAKNTVYLQMNSLKPEDTAVYYCATDAGGPYRFGYWGQGTQVTVSS”, the “polyreactivity (PSR sort gate)” value was “low polyreactivity”.
In the case of “QVQLVESGGGLVQAGGSLRLSCAASGYTIIVNAMGWYRQAPGKERELVAAISWSSVSTYYADSVKGRFTISRDNAKNTVYLQMNSLKPEDTAVYYCAAEGYDYSQWFDYWGQGTQVTVSS”, the “polyreactivity (PSR sort gate)” value is reported as “high polyreactivity”.
For “QVQLVESGGGLVQAGGSLRLSCAASGRTFYLNAMGWYRQAPGKERQLVAVISYRGDSTYADSVKGRFTISRDNAKNTVYLQMNSLKPEDTAVYYCAADLTRYHYRYLVTHWWYDYWGQGTQVTVSS”, the “polyreactivity (PSR sort gate)” value was “low polyreactivity”.
With “QVQLVESGGGLVQAGGSLRLSCAASGSTFYGYAMGWYRQAPGKERELVAAISSGASTYYADSVKGRFTISRDNAKNSVYLQMNSLKPEDTAVYYCAAYSYPKKYGYWGQGTQVTVSL” the “polyreactivity (PSR sort gate)” value was “high polyreactivity”.
In the case of “QVQLVESGGGLVQAGGSLRLSCAASGFIFSRYAMGWYRQAPGKERELVAAISWSGASTYYADSVKGRFTISRDNAKNTVYLQMNSLKPEDTAVYYCNAGYYRGEGFYTYDYWGQGTQVTVSS”, the “polyreactivity (PSR sort gate)” value is reported as “high polyreactivity”.
For “QVQLVESGGGLVQAGGSLRLSCAASGRTFYIYAMGWYRQAPGKERELVAAITWRGGRTYYADSVKGRFTISRDNAKNTVYLQMNSLKPVDTAVYYCNARSWYSFHPHDYWGQGTQVTVSS”, the “polyreactivity (PSR sort gate)” value was “high polyreactivity”.
For “QVQLEESGGRLVQAGGSLRLSCAASGRTFGPYGMGWYRQAPGKESELDAAINGNGDSTYYADSVKGRFTISRDNAKNTVYLQMNSLKPEDTAVYYCASEGWPDYTSRLYDYWGQGTQVTVSS”, the “polyreactivity (PSR sort gate)” value was “low polyreactivity”.
In the case of “QVQLVESGGGLVQAGGSHRLSCAASGRTFWYNAMGWYRQAPGKERELVAAITSGDSTNYADSVKGRFTISRDNAKNTVYLQMNSLKPEVTAAYYCAAEGRPNWYYWAEGYYWGQGTQVTVSS”, the “polyreactivity (PSR sort gate)” value is reported as “high polyreactivity”.
With “QVQLVESGGGLVQAGGSLRLSCAASGRTFRSYDMGWYRQAPGKERELVAAISKRGGNTYYADSVKGRFTISRDNAKNTVYLQMNSLKPEDTAVYYCAKRVSGSPPTAGSLSDSWGQGTQVTVSS” the “polyreactivity (PSR sort gate)” value was “high polyreactivity”.
In the case of “QVQLVESGGGLGQAGGSLRLSCAASGRIFRYNAMGWYRQAPGKERELVAAITGSGGSTYYADSVKGRFTISRDNAKNTVYLQMNSLKPEDTAVYYCNTYTYYSRMDYWGQGTQVTVSS”, the “polyreactivity (PSR sort gate)” value is reported as “high polyreactivity”.
In the case of “QVQLVESVGGLVQAGGILRLSCAASGNTFPAYAMGWYRQAPGKERELVATISWSTGSTNYADSVKGRFTISRDTAKNTVYLQMNSLKPEDTAVYYCAASYWCYEYDYWGLGTQVTVSS”, the “polyreactivity (PSR sort gate)” value is reported as “low polyreactivity”.
In the case of “QVQLVESGGGLVQAGGSLRLSCAASGFIFRHNGMGWYRQAPGKERELVAAITKRGGDTYYADSVKGRFTISRDNAKNSVYLQMISLKREDTAVYYCTVDVRYPVSFDYDYWGQGNQVTVSS”, the “polyreactivity (PSR sort gate)” value is reported as “low polyreactivity”.
In the case of “HVLLVESGGGLVQAGGSLRLSFAATAFTFTYYTMGSYRQAPGKETELVAAITSSGGSTYYADSVMGRFTISRDNANNTVYLQMNSLKPEDTAVYYCAASRYSTRFGARVYWGQVTQVTVSS”, the “polyreactivity (PSR sort gate)” value is reported as “high polyreactivity”.
For “QDQLVESGGGLVQAGGSLRLSCAASGRIFSKYAKGWYRQAPGKERELVAAITTGGGSTSYADSVKGRFTISRDNAKITVYLQMNSLKPEDTAVYYCAADRLSYGFGMYYWGQGTQVTVSS”, the “polyreactivity (PSR sort gate)” value was “low polyreactivity”.
With “QVQLVESGGGLVQAGGSLRLSCAASGFTFGSYVMGWYRQAPGKERELVADISIRGGSTYYADSVKGRFTISRDNAKNTVYLQMHSLKPEDTAVYDCNADPAFYYWEGIVGGADYDYWGQGTQVTVSS” the “polyreactivity (PSR sort gate)” value was “low polyreactivity”.
For “QVQLVESGGGLVQAGGSLRLSCAASGITFYRYAMGWYRPAPGKERELVAAISSSGGSTYYADSVKGRFTISRDNAKNSVYLQMNRLKPEDTAVYYCNAVVQNPQEYDYWGQGTQVTVSS”, the “polyreactivity (PSR sort gate)” value was “high polyreactivity”.
With “QVQLVESGGRLVEAGGSLRLSCAASGRTIPAYALGWYRQAPGKERELVAGISYRGGSTYYADSVKGRFTISRDKAKNTVYLPMNSLKPEDTAVYYCARVYSRNKGVYWGQGTQVPVSS” the “polyreactivity (PSR sort gate)” value was “low polyreactivity”.
With “QVQLVESGGGLVQAVGSLRLSCAASGSTLSANAMGWYRQAPGKEWELVAAISWNGGCTYYADSVKGRFTISRDNAKNTVYLQMNSLKPEDTAVYYCAAEYIVTYEYWYFGYDYWGQGTQVTVSS” the “polyreactivity (PSR sort gate)” value was “low polyreactivity”.
For “QVQLVESGGGLVQAGGSLRLTCAASGSTFTYYAMGWYRQAPGKERDLVAAITSSDGSTYYADSVKGRFTISRDNAKNTVYLQMNSLKPEDTAVYYCAADNYVDFYDEYDYWGQGTQVTVSS”, the “polyreactivity (PSR sort gate)” value was “low polyreactivity”.
With “QVQLVESGGGLVQAGGSLRLSCAASGSIFWYNAMGWYRQAPGKEREFVATITNGTTTNYADSVKGRFTISCDNAKNTVYLQMNSLKPEDTAVYFCAVTGVYVKYDYWGQGTHVTVSS” the “polyreactivity (PSR sort gate)” value was “low polyreactivity”.
In the case of “QVQRVESGGGLVQAAGSLRLSCAASGRTFIYYAKGWYRHEPGKERELVAGISRNGGRTYYADSVKGRFTISRDNAKNTVYLQMNSLKPEDTAVYYCNAYPPSRHDYCGQGTQVTVSS”, the “polyreactivity (PSR sort gate)” value is reported as “high polyreactivity”.
In the case of “QVQLVESGGGLVQAGGSLRLSCAASGSIFYPYDMGWYRQAPGKERELVATINWSSGRTNYADSVKGRFTISRDNAKNTVYLQMNSLKPEDTAVYYCNAVTYSRRYAYYYWGQATQVTVSS”, the “polyreactivity (PSR sort gate)” value is reported as “high polyreactivity”.
In the case of “QVQLVESGGGLVKAGGSLRLSCAASGFIFLQYVMGSYRQAPVKERELVAAITSGGSTYYADSVKARFTISRDNAKNTVYLQMNSLKPEDTAVYFCATDVADNTFDALYGSDYWGQCTQVTVSS”, the “polyreactivity (PSR sort gate)” value is reported as “low polyreactivity”.
In the case of “QVQLVESGGGLVQAGGSLRLSCAASGSTFGWYTMGWYRQAPGKERELVATISYGGGITNYADSVKGRFTMSRDNAKNTVDLQMNSLKPEDTAVYYWAVDNTGRSWPYDYWGQGTQVTVSS”, the “polyreactivity (PSR sort gate)” value is reported as “low polyreactivity”.
For “QVQLVESGGGLVQAGGSLRLSCAASGSIFIGYAMGWYRQAPGKERELVAAISWSGDSTYYADSVKGRFTISRDNAKNTVYLQMNSLKPEDTAVYYCARDKWGLRYAPTVDYWGQGTQVTVSS”, the “polyreactivity (PSR sort gate)” value was “high polyreactivity”.
For “QVQLVESGGGLVQAGGSLRLSCAASGFIFSIYAMGWYRQAPGKERELVAAISGTGSTSYADSVKGRFTISRDNAKNTVYLQMNSLKPEDTAVYYCAKDGPGRLGDDYWGQGTQVTVSS”, the “polyreactivity (PSR sort gate)” value was “low polyreactivity”.
